{
  "source": "patent US20140010832A1",
  "experiment_in_all_cases": "ELISA; cytokine coated, ECM protein 0.02 to 320 nM, KD by non-linear fit",
  "key": {"Fibrinogen": {"target": "Fibrinogen"}, "Fibronectin": {"target": "Fibronectin", "sequence (P02751 32-2477)": "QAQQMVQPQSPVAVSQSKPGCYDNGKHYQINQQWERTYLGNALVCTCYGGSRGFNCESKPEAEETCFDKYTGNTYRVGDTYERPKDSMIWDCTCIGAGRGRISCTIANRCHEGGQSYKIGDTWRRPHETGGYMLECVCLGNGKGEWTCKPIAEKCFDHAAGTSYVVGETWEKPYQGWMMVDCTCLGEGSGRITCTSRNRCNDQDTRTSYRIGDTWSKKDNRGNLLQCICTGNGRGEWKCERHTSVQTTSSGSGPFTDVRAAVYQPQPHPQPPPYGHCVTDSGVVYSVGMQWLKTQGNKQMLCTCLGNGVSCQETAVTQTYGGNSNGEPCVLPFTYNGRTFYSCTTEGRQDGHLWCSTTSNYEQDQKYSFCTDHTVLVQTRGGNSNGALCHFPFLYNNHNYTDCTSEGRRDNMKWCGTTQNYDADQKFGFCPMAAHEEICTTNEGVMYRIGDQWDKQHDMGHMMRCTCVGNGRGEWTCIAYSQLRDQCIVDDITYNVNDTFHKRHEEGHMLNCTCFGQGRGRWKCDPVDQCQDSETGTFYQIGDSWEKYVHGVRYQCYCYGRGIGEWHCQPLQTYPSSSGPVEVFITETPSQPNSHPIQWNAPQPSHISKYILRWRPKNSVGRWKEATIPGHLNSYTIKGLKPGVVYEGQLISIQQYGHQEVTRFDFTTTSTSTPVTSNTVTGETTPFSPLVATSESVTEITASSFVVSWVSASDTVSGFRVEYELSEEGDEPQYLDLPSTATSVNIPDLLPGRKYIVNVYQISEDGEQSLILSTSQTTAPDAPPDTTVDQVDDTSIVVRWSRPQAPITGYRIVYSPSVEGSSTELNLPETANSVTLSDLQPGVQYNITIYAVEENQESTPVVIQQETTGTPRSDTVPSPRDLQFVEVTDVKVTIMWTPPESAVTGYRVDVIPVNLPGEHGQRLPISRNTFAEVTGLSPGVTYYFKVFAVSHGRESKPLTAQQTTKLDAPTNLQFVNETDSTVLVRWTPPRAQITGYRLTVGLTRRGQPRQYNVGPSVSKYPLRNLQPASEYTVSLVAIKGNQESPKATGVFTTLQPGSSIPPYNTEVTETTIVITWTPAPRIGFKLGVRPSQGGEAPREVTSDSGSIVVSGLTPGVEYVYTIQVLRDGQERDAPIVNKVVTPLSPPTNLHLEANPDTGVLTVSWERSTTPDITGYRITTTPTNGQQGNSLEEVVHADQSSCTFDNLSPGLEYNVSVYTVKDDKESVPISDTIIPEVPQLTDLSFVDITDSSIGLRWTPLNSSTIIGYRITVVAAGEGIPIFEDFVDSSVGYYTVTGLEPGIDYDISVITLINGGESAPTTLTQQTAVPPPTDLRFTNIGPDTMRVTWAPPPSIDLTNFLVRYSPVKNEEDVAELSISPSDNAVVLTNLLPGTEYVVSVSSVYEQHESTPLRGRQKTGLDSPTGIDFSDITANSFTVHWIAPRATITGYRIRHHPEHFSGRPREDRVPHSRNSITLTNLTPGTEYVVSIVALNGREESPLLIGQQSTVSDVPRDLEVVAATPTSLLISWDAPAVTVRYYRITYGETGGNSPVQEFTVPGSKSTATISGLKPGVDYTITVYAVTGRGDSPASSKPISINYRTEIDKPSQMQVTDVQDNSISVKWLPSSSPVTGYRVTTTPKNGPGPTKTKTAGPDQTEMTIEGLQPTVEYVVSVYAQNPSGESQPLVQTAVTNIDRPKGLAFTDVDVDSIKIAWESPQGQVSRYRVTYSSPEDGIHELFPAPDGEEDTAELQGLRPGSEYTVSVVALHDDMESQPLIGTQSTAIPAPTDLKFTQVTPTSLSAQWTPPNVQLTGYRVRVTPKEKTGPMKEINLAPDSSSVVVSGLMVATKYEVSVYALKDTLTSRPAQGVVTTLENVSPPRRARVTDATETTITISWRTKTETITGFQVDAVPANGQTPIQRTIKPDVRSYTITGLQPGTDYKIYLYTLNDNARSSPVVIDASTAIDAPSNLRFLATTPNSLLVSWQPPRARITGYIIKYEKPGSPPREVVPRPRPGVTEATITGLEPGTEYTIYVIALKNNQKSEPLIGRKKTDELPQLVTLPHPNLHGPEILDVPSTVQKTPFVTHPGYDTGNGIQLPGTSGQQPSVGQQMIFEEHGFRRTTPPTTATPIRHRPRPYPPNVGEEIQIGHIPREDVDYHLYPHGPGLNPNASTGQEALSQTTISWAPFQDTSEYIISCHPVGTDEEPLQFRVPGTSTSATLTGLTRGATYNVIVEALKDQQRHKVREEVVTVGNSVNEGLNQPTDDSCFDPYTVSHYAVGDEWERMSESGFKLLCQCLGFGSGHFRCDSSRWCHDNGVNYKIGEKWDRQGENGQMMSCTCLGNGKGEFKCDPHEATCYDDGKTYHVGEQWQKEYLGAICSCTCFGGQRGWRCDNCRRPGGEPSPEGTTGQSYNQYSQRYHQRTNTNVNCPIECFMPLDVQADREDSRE"}, "Tenascin C": {"target": "Tenascin C", "sequence (P24821 23-2201)": "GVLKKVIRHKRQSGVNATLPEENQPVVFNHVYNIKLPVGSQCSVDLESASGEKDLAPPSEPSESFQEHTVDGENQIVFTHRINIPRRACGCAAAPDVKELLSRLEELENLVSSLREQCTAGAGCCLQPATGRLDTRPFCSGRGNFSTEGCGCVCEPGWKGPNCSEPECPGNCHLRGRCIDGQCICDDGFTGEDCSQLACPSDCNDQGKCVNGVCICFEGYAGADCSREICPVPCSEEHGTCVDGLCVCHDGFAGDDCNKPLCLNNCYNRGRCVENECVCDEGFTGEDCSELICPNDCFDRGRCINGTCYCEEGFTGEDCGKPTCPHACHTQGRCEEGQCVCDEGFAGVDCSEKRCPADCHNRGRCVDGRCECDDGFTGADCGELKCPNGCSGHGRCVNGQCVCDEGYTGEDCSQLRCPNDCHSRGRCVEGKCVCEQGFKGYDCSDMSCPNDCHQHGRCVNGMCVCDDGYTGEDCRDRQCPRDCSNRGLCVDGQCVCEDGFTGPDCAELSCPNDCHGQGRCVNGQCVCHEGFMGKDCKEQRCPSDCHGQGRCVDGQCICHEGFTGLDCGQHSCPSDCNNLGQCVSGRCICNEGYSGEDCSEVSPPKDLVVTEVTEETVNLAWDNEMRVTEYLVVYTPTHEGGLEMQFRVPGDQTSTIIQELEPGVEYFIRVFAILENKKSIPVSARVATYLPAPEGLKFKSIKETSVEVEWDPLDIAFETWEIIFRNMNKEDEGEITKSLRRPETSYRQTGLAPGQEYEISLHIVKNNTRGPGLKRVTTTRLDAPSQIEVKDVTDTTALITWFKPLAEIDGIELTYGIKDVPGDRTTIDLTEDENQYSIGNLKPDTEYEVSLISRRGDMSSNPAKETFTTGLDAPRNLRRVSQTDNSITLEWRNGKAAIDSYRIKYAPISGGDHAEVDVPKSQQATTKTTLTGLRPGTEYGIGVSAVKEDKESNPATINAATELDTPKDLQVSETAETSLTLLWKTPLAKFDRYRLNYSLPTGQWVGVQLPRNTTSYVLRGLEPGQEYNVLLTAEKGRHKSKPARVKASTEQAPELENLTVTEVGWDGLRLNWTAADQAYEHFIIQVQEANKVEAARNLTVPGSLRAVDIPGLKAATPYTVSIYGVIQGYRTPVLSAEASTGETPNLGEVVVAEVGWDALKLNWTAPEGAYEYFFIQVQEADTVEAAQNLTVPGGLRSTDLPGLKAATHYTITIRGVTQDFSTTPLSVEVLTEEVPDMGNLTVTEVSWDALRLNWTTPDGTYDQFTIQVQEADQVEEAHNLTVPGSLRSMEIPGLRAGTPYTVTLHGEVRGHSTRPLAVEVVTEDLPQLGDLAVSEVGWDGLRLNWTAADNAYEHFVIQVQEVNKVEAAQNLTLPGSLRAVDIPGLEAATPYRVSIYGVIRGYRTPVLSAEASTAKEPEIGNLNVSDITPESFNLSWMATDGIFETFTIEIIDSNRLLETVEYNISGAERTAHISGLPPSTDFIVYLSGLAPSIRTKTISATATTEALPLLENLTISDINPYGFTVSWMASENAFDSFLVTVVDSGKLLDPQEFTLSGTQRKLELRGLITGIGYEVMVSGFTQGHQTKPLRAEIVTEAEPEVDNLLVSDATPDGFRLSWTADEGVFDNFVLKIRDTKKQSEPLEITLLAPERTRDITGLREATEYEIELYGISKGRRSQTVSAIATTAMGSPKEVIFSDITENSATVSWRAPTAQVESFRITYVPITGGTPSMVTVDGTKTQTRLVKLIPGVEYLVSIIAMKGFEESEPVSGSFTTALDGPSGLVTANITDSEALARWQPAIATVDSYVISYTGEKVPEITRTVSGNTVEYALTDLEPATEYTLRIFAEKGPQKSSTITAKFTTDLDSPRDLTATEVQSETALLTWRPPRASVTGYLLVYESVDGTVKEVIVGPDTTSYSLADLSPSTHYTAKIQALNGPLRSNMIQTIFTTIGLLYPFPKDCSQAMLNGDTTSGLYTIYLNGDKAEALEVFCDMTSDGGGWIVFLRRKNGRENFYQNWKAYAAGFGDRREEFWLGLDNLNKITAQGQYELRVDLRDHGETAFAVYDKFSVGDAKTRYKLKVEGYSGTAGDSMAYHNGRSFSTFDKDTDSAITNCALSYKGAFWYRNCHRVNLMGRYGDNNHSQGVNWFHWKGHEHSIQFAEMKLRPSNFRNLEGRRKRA"}, "Vitronectin": {"target": "Vitronectin", "sequence (P04004 20-478)": "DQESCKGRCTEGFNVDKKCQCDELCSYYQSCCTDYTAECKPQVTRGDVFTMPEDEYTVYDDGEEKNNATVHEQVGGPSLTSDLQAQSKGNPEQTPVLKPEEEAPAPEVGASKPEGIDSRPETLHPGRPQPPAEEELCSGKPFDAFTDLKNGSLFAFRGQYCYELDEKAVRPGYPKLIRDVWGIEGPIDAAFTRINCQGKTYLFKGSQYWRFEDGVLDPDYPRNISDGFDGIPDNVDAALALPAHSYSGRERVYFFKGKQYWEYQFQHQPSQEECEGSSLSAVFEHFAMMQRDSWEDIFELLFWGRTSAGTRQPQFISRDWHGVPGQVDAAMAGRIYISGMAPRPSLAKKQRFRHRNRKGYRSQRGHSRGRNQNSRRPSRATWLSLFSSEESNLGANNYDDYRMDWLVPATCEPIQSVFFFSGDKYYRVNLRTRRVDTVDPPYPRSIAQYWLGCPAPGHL"}, "Osteopontin": {"target": "Osteopontin"}},
  "data": [
    {"binder": "human BMP-2 (ligand) QAKHKQRKRLKSSCKRHPLYVDFSDVGWNDWIVAPPGYHAFYCHGECPFPLADHLNSTNHAIVQTLVNSVNSKIPKACCVPTELSAISMLYLDENEKVVLKNYQDMVVEGCGCR", "values": [
      {"measurement": "Kd", "setting": "Fibrinogen", "value": 47.1, "unit": "nM"},
      {"measurement": "Kd", "setting": "Fibronectin", "value": 19.2, "unit": "nM"},
      {"measurement": "Kd", "setting": "Tenascin C", "value": 25.5, "unit": "nM"},
      {"measurement": "Kd", "setting": "Vitronectin", "value": 94.7, "unit": "nM"}
    ]},
    {"binder": "human BMP-2-PlGF2123-144* (ligand) QAKHKQRKRLKSSCKRHPLYVDFSDVGWNDWIVAPPGYHAFYCHGECPFPLADHLNSTNHAIVQTLVNSVNSKIPKACCVPTELSAISMLYLDENEKVVLKNYQDMVVEGCGCRRRPKGRGKRRREKQRPTDSHL", "values": [
      {"measurement": "Kd", "setting": "Fibrinogen", "value": 2, "unit": "nM"},
      {"measurement": "Kd", "setting": "Fibronectin", "value": 5.2, "unit": "nM"},
      {"measurement": "Kd", "setting": "Osteopontin", "value": 11.2, "unit": "nM"},
      {"measurement": "Kd", "setting": "Tenascin C", "value": 6.9, "unit": "nM"},
      {"measurement": "Kd", "setting": "Vitronectin", "value": 2.4, "unit": "nM"}
    ]},
    {"binder": "human PDGF-BB-PlGF2123-144 (ligand) SLGSLTIAEPAMIAECKTRTEVFEISRRLIDRTNANFLVWPPCVEVQRCSGCCNNRNVQCRPTQVQLRPVQVRKIEIVRKKPIFKKATVTLEDHLACKCETVAAARPVTRRRPKGRGKRRREKQRPTDCHL", "values": [
      {"measurement": "Kd", "setting": "Fibrinogen", "value": 3.2, "unit": "nM"},
      {"measurement": "Kd", "setting": "Fibronectin", "value": 4.5, "unit": "nM"},
      {"measurement": "Kd", "setting": "Osteopontin", "value": 3.3, "unit": "nM"},
      {"measurement": "Kd", "setting": "Tenascin C", "value": 6.3, "unit": "nM"},
      {"measurement": "Kd", "setting": "Vitronectin", "value": 1.2, "unit": "nM"}
    ]}
  ]
}
